Read-outs that look alike come from different tables or passages of the source. Ends that are not written are not given here.
Assays:
[1] = biological target: T1, human hisTRIM7- (human, UniProt Q9C029 342-511); test: ITC
[2] = biological target: T1, human hisTRIM7-; test: ITC; remark: listed apart in the source

Binder	Kd [1] [µM]	Kd [2] [µM]
Ac-Leu-Gln [N-terminal acetylated LQ]	144	
DNIKKKLDTYLQ [rbGYG1 322-333 peptide]		21.1
